According to patent publication US20200362049A1:

Biological target: Recombinant, Histidine-tagged extracellular domain of human CD38 (human) (UniProt P28907)
Assay: BLI (Forte Bio), 1:1 fit

IB4, reference monoclonal agonistic mouse anti-human CD38 antibody
Kd: 9 nM
